Reference: patent US20040265965A1 (ELAN PHARMACEUTICALS, published 2004)
Non-standard residues stand in square brackets, D forms with d. No end group written: not given here. Sta = CC(C)C[C@H](N)[C@@H](O)CC(=O)O

What was measured:
[1] = target: T1, Δ2,3-452H soluble BACE (S174I, N223A, histidine tag), baculovirus/Sf9 (human, UniProt P56817 22-452); experiment: affinity chromatography on the immobilised inhibitor peptide
T1 construct: not shown: histidine tag

[2] = target: T2, Δ2,3-452H,NINL soluble BACE (S174I, N223A, R42L43P44R45 changed to NINL, histidine tag), baculovirus/Sf9 (human, UniProt P56817 46-452); experiment: as above
T2 construct: not shown: histidine tag
T2 sequence (P56817 other isoform, or with tags, fused parts or gaps S174I N223A S174I N223A): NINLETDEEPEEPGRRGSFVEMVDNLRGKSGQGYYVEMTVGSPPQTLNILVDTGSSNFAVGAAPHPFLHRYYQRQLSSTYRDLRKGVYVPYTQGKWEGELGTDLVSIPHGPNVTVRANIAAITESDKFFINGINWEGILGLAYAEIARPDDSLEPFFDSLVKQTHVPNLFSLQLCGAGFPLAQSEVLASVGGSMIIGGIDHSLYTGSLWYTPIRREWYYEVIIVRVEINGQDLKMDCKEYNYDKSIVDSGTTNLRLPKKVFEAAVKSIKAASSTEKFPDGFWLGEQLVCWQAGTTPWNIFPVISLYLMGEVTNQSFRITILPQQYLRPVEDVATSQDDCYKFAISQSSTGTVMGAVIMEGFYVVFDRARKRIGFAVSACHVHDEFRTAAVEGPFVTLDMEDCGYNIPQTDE

T1 sequence (P56817 22-452 S174I/N223A): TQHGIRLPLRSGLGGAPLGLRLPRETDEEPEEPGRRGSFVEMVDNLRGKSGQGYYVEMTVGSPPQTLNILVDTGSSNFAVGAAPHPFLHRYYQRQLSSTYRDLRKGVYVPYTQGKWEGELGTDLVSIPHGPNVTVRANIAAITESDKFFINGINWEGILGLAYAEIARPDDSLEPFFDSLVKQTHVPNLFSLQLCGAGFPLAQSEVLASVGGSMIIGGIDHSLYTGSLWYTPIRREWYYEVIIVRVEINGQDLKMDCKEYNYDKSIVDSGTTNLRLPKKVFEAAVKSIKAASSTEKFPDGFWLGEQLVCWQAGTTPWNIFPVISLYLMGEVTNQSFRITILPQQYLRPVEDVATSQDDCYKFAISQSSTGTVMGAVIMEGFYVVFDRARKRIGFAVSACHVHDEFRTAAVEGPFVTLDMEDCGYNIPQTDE

B1: P10-P4′staD→V inhibitor peptide, KTEEISEVN[sta]VAEF (peptide)
peptide: KTEEISEVN[Sta]VAEF
notes: also called P10-P4′staV; P10-4′staD→V
[1]
  binding result: binds
[2]
  binding result: binds
